Measured values taken from the Human Domainome abundance scans (Beltran et al. 2025).
± gives the uncertainty stated by the source.

B1: Chromodomain-helicase-DNA-binding protein 5, residues 338 to 390; numbered along this chain, Q8TDI0 (parent)
chain: YETDHQDYCEVCQQGGEIILCDTCPRAYHLVCLDPELEKAPEGKWSCPHCEKE

Variants of: B1
Assay: abundance fitness (aPCA) (normalised: wild type 0, dead -1); higher = more abundant; growth selection in yeast, the domain comes from the species named
Conditions: Homo sapiens

In order of falling abundance fitness:
1. W45H  0.283 ± 0.2
2. D34E  0.266 ± 0.15
3. G43T  0.235 ± 0.13
4. G43N  0.23 ± 0.15
5. K44D  0.216 ± 0.16
6. E36V  0.205 ± 0.12
7. E38P  0.188 ± 0.15
8. L33M  0.185 ± 0.12
9. P35G  0.181 ± 0.11
10. P41N  0.18 ± 0.19
11. L33S  0.176 ± 0.12
12. G43H  0.166 ± 0.16
13. L33T  0.163 ± 0.13
14. W45C  0.157 ± 0.14
15. K44R  0.14 ± 0.099
16. E36D  0.139 ± 0.16
17. P35M  0.121 ± 0.13
18. P41I  0.117 ± 0.21
19. K44M  0.116 ± 0.15
20. W45M  0.115 ± 0.17
21. D34S  0.093 ± 0.13
22. E36K  0.093 ± 0.17
23. G43S  0.087 ± 0.1
24. E36P  0.087 ± 0.13
25. P35K  0.082 ± 0.15
26. P35T  0.069 ± 0.13
27. E36M  0.069 ± 0.16
28. K44G  0.065 ± 0.093
29. L33Y  0.064 ± 0.17
30. C47D  0.064 ± 0.21
31. P41A  0.058 ± 0.11
32. G43K  0.057 ± 0.17
33. P41H  0.056 ± 0.17
34. D34A  0.052 ± 0.12
35. L33H  0.046 ± 0.22
36. E36Q  0.046 ± 0.13
37. G43D  0.044 ± 0.14
38. D34H  0.039 ± 0.18
39. G43P  0.032 ± 0.12
40. L33W  0.032 ± 0.13
41. K44E  0.031 ± 0.12
42. P35V  0.03 ± 0.096
43. G43V  0.029 ± 0.11
44. G43E  0.029 ± 0.15
45. P35Y  0.027 ± 0.24
46. E36G  0.014 ± 0.11
47. P35E  0.001 ± 0.12
48. K44T  0 ± 0.13
49. W45V  0 ± 0.1
50. E38Q  -0.008 ± 0.15
51. K44L  -0.009 ± 0.12
52. L33F  -0.013 ± 0.18
53. E36A  -0.033 ± 0.12
54. L33V  -0.034 ± 0.097
55. E36T  -0.042 ± 0.15
56. W45K  -0.046 ± 0.22
57. W45F  -0.05 ± 0.17
58. K44C  -0.051 ± 0.13
59. K44Q  -0.053 ± 0.13
60. W45S  -0.054 ± 0.1
61. P35S  -0.057 ± 0.11
62. E36I  -0.057 ± 0.24
63. D34F  -0.058 ± 0.16
64. P35Q  -0.058 ± 0.15
65. E36C  -0.067 ± 0.17
66. G43Q  -0.074 ± 0.15
67. P41R  -0.075 ± 0.098
68. P35L  -0.078 ± 0.097
69. L33A  -0.085 ± 0.11
70. W45P  -0.086 ± 0.18
71. G43M  -0.088 ± 0.17
72. W45G  -0.091 ± 0.096
73. E36L  -0.093 ± 0.11
74. G43L  -0.096 ± 0.11
75. P35R  -0.096 ± 0.12
76. P41V  -0.096 ± 0.12
77. D34Q  -0.098 ± 0.17
78. W45A  -0.105 ± 0.14
79. P41G  -0.106 ± 0.12
80. G43R  -0.11 ± 0.098
81. P41E  -0.114 ± 0.13
82. E38L  -0.115 ± 0.13
83. G43C  -0.117 ± 0.12
84. P41K  -0.118 ± 0.17
85. P41M  -0.124 ± 0.17
86. K44S  -0.125 ± 0.12
87. D34R  -0.125 ± 0.11
88. P41L  -0.135 ± 0.1
89. G43F  -0.138 ± 0.14
90. D34V  -0.14 ± 0.1
91. W45I  -0.146 ± 0.18
92. D34P  -0.15 ± 0.21
93. W45L  -0.157 ± 0.12
94. D34C  -0.161 ± 0.18
95. E36S  -0.163 ± 0.13
96. P41F  -0.164 ± 0.26
97. E36N  -0.166 ± 0.19
98. D34G  -0.167 ± 0.13
99. G43I  -0.169 ± 0.16
100. P41T  -0.17 ± 0.2
101. E36H  -0.18 ± 0.14
102. G43A  -0.192 ± 0.13
103. D34T  -0.195 ± 0.2
104. D34L  -0.201 ± 0.11
105. W45E  -0.202 ± 0.14
106. E38H  -0.207 ± 0.2
107. P35I  -0.209 ± 0.21
108. P35N  -0.211 ± 0.23
109. G43W  -0.223 ± 0.14
110. L33P  -0.223 ± 0.15
111. E38S  -0.225 ± 0.14
112. L33I  -0.235 ± 0.21
113. K44W  -0.236 ± 0.13
114. K44N  -0.237 ± 0.2
115. E36F  -0.237 ± 0.19
116. C47H  -0.248 ± 0.18
117. K44P  -0.255 ± 0.14
118. K44A  -0.255 ± 0.15
119. K44F  -0.259 ± 0.17
120. W45D  -0.268 ± 0.13
121. D34Y  -0.269 ± 0.25
122. E38N  -0.271 ± 0.26
123. L33C  -0.272 ± 0.16
124. L33R  -0.281 ± 0.11
125. W45Q  -0.29 ± 0.17
126. W45Y  -0.293 ± 0.17
127. E38I  -0.294 ± 0.24
128. L33N  -0.311 ± 0.17
129. D34I  -0.313 ± 0.24
130. P35C  -0.313 ± 0.21
131. K44I  -0.32 ± 0.21
132. E36W  -0.321 ± 0.14
133. G43Y  -0.323 ± 0.18
134. P41W  -0.323 ± 0.15
135. K44H  -0.341 ± 0.22
136. D34K  -0.347 ± 0.24
137. E36Y  -0.35 ± 0.15
138. D34N  -0.354 ± 0.2
139. P41C  -0.379 ± 0.17
140. L33G  -0.389 ± 0.12
141. W45T  -0.393 ± 0.16
142. D34M  -0.403 ± 0.19
143. L33E  -0.414 ± 0.11
144. P35W  -0.428 ± 0.19
145. C47T  -0.43 ± 0.14
146. P41Y  -0.443 ± 0.27
147. D34W  -0.516 ± 0.18
148. P35H  -0.524 ± 0.34
149. P41Q  -0.568 ± 0.2
150. C47W  -0.58 ± 0.13
151. K44Y  -0.599 ± 0.21
152. C47K  -0.599 ± 0.22
153. C47S  -0.609 ± 0.12
154. C47F  -0.765 ± 0.28
155. C47V  -0.773 ± 0.19
156. C47G  -0.797 ± 0.14
157. C47A  -0.841 ± 0.15
158. C47L  -0.855 ± 0.12
159. C47E  -0.9 ± 0.18
160. P35F  -0.915 ± 0.33
161. C47Q  -0.918 ± 0.2
162. C47R  -0.922 ± 0.11
163. C47M  -0.945 ± 0.17
164. C47I  -0.95 ± 0.38
165. C47N  -0.953 ± 0.35
166. C47P  -0.96 ± 0.2
167. C47Y  -1.2 ± 0.28
